Reference: publication doi:10.1101/2022.04.03.486873 (bioRxiv, 2022)
Changes are numbered by the printed parent chain. Names and notes keep the numbering of the source.

T1: UPF2L (120-1227) (UniProt Q9HAU5 120-1227)
T1 sequence: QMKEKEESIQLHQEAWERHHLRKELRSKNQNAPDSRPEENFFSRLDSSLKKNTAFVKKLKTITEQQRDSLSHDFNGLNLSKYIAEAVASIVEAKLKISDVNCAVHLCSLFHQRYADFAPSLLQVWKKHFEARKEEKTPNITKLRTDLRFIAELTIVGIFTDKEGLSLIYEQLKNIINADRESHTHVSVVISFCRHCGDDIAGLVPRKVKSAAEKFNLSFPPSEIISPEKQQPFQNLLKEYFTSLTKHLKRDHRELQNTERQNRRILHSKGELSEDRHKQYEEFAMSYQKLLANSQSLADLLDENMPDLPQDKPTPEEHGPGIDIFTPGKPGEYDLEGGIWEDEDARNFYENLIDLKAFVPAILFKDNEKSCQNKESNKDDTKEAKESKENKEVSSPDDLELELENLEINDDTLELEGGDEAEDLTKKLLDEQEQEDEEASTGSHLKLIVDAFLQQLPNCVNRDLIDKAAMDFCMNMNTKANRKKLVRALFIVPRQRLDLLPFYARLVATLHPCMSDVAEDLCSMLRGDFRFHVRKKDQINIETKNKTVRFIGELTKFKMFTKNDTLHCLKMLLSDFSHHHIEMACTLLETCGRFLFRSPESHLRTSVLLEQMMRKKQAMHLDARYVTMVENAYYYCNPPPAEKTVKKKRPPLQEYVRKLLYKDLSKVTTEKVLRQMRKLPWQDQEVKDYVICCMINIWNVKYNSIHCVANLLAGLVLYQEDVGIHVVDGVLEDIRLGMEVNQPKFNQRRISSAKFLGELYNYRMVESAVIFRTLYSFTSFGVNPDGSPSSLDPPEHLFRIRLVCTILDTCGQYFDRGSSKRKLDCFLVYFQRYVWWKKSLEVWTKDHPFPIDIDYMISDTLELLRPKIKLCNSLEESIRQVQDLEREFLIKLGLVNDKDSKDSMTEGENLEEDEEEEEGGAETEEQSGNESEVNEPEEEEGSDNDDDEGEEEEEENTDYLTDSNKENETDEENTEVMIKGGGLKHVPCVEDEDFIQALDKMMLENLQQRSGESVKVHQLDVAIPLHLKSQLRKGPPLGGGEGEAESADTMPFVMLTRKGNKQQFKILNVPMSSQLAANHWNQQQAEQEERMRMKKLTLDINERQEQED

B1: UPF3B-FL (residues 1-470) (natural protein)
chain: MKEEKEHRPKEKRVTLLTPAGATGSGGGTSGDSSKGEDKQDRNKEKKEALSKVVIRRLPPTLTKEQLQEHLQPMPEHDYFEFFSNDTSLYPHMYARAYINFKNQEDIILFRDRFDGYVFLDNKGQEYPAIVEFAPFQKAAKKKTKKRDTKVGTIDDDPEYRKFLESYATDNEKMTSTPETLLEEIEAKNRELIAKKTTPLLSFLKNKQRMREEKREERRRREIERKRQREEERRKWKEEEKRKRKDIEKLKKIDRIPERDKLKDEPKIKLLKKPEKGDEKELDKREKAKKLDKENLSDERASGQSCTLPKRSDSELKDEKPKRPEDESGRDYREREREYERDQERILRERERLKRQEEERRRQKERYEKEKTFKRKEEEMKKEKDTLRDKGKKAESTESIGSSEKTEKKEEVVKRDRIRNKDRPAMQLYQPGARSRNRLCPPDDSTKSGDSAAERKQESGISHRKEGGEE
B2: Avi-UPF2-MIF4GIII (biotinylated) (domain or fragment)
chain: EKTVKKKRPPLQEYVRKLLYKDLSKVTTEKVLRQMRKLPWQDQEVKDYVICCMINIWNVKYNSIHCVANLLAGLVLYQEDVGIHVVDGVLEDIRLGMEVNQPKFNQRRISSAKFLGELYNYRMVESAVIFRTLYSFTSFGVNPDGSPSSLDPPEHLFRIRLVCTILDTCGQYFDRGSSKRKLDCFLVYFQRYVWWKKSLEVWTKDHPFPIDIDYMISDTLELLRPKIKLCNSLEESIRQVQDLEREFLIKLGLVNDKDSKDSMTEGENLEEDEEEEEGGAETEEQSGNESEVNE
modifications: biotin on the Avi tag (BirA)
B3: UPF3B-41-189 (domain or fragment)
chain: DRNKEKKEALSKVVIRRLPPTLTKEQLQEHLQPMPEHDYFEFFSNDTSLYPHMYARAYINFKNQEDIILFRDRFDGYVFLDNKGQEYPAIVEFAPFQKAAKKKTKKRDTKVGTIDDDPEYRKFLESYATDNEKMTSTPETLLEEIEAKN
B4: UPF3B-41-189 Y160A+Y167A (domain or fragment)
chain: B3 chain with Y120A, Y127A
B5: UPF3B-41-189 Y160D (domain or fragment)
chain: B3 chain with Y120D
B6: UPF3B-41-189 F163A (domain or fragment)
chain: B3 chain with F123A
B7: UPF3B-41-189 Y167D (domain or fragment)
chain: B3 chain with Y127D
B8: UPF3B-41-189 Y160D+Y167D (domain or fragment)
chain: B3 chain with Y120D, Y127D
B9: UPF3B-41-189 Y160A (domain or fragment)
chain: B3 chain with Y120A
B10: UPF3B-41-189 Y167A (domain or fragment)
chain: B3 chain with Y127A
B11: UPF3B-41-143 (domain or fragment)
chain: DRNKEKKEALSKVVIRRLPPTLTKEQLQEHLQPMPEHDYFEFFSNDTSLYPHMYARAYINFKNQEDIILFRDRFDGYVFLDNKGQEYPAIVEFAPFQKAAKKK
B12: UPF3A-58-206-Iso1 (domain or fragment)
chain: KPREEKRTALSKVVIRRLPPGLTKEQLEEQLRPLPAHDYFEFFAADLSLYPHLYSRAYINFRNPDDILLFRDRFDGYIFLDSKGLEYPAVVEFAPFQKIAKKKLRKKDAKTGSIEDDPEYKKFLETYCVEEEKTSANPETLLGEMEAKT

Biological target: T1, UPF2L (120-1227)
Assay: native gel or EMSA

Row | binding result | Molecule
1 | binds | B1

Biological target: B1
Assay: SPR

Row | Kd [nM] | Molecule
2 | 0.47 | B2

Biological target: B2
Assay: SPR

Row | Kd [nM] | Molecule
3 | 3.6 | B3
4 | ~130 | B4
5 | 140 | B5
6 | 90 | B6
7 | 7.4 | B7
8 | ~130 | B8
9 | 88 | B9
10 | 3.3 | B10
11 | 720 | B11
12 | 0.22 | B12

Biological target: Avi-UPF2-MIF4GIII (biotinylated) (UniProt Q9HAU5)
Assay: SPR

Row | Kd [nM] | Molecule
13 | 0.048 | full-length UPF3A-WT (from UniProt Q9H1J1 1-476) (natural protein)
